T1: human IL-17RC (IL-17RCx1), full length on transfected cells (human, UniProt Q8NAC3 21-791)
T1 construct: Expressed on BHK, 293T or nih3t3/kz142.8 cells; also called hIL-17RC; hIL-17RCX1
T1 sequence: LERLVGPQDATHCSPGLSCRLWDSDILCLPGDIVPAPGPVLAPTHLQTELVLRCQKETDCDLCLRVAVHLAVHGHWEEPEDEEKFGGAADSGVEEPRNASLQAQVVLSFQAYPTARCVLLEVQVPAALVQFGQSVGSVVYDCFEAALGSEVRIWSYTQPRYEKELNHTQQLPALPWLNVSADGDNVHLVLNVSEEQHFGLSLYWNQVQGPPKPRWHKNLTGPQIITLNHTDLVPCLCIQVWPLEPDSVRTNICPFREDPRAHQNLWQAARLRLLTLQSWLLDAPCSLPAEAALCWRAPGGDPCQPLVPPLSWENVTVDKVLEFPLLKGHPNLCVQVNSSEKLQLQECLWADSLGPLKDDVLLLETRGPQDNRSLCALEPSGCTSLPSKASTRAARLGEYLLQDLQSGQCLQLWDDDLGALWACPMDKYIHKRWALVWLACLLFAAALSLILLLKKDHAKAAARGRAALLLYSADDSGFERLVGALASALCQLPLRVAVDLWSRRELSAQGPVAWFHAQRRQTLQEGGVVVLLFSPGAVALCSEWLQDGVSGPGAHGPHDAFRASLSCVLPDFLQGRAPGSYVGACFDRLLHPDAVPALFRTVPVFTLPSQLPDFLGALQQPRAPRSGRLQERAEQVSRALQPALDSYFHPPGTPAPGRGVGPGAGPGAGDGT

T2: human IL-17RCx4, on transfected 293T cells (human, UniProt Q8NAC3 21-791)
T2 construct: Splice variant that includes exons 7, 8 and 12
T2 sequence: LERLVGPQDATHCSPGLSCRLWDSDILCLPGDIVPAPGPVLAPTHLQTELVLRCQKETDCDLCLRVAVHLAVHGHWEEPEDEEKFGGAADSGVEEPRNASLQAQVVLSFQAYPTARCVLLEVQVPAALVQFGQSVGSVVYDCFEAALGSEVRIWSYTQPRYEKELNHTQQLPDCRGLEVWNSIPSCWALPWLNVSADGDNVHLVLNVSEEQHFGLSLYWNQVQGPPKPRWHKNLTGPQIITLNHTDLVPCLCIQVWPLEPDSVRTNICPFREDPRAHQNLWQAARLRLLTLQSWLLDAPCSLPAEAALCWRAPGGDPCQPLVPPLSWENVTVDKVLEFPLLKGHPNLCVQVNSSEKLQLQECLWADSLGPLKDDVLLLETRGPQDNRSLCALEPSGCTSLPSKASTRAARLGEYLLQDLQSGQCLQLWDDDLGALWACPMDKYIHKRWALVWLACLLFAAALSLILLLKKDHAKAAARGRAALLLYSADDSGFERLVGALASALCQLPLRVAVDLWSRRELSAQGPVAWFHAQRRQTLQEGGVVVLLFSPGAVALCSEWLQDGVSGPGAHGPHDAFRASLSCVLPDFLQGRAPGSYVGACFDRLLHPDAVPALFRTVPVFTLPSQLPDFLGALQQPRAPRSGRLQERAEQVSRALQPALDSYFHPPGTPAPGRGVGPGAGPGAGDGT

T3: mouse IL-17RCx1, on transfected cells (mouse, UniProt Q8K4C2 22-698)
T3 construct: also called murine IL-17RCx1; IL-17RCx1 (mouse)
T3 sequence: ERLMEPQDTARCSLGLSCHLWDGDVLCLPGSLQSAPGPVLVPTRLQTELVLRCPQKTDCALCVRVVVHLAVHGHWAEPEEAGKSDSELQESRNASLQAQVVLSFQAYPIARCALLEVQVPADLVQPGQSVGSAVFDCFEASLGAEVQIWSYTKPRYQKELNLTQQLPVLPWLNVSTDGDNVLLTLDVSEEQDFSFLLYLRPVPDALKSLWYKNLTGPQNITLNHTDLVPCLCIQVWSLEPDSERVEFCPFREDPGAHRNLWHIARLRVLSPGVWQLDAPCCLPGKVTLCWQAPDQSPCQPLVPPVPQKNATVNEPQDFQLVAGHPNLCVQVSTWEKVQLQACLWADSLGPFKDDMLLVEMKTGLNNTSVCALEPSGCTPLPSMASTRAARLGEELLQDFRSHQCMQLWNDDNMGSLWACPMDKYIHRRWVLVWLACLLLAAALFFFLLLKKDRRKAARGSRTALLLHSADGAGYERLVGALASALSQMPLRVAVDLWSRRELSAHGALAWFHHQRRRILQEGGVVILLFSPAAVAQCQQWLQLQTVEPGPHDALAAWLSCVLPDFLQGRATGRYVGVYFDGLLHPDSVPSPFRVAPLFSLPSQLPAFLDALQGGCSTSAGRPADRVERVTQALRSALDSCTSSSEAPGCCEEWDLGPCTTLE

T4: human IL-17 receptor (IL-17R), on transfected cells (human, UniProt Q96F46 33-320)
T4 sequence: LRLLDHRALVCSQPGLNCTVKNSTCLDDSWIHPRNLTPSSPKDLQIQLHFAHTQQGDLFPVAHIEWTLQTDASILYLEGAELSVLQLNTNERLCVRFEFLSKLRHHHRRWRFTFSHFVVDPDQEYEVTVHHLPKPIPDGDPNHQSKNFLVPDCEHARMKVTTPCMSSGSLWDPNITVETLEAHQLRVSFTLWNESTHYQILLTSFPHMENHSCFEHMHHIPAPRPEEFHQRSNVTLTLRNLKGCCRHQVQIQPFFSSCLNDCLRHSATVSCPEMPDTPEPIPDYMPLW

B1: mouse IL-17A (ligand)
chain: AAIIPQSSACPNTEAKDFLQNVKVNLKVFNSLGAKVSSRRPSDYLNRSTSPWTLHRNEDPDRYPSVIWEAQCRHQRCVNAEGKLDHHMNSVLIQQEILVLKREPESCPFTFRVEKMLVGVGCTCVASIVRQAA
modifications: biotinylated in Example 31
notes: also called murine IL-17A; mIL-17A
B2: human IL-17F (ligand)
chain: RKIPKVGHTFFQKPESCPPVPGGSMKLDIGIINENQRVSMSRNIESRSTSPWNYTVTWDPNRYPSEVVQAQCRNLGCINAQGKEDISMNSVPIQQETLVVRRKHQGCSVSFQLEKVLVTVGCTCVTPVIHHVQ
modifications: biotinylated (flow cytometry) or 125I-radiolabeled by the iodobead method (radioligand assays); unlabeled as cold competitor; expressed from cDNA in COS cells in the secretion trap
notes: also called huIL-17F; hIL-17F
B3: mouse IL-17F (ligand)
chain: RKNPKAGVPALQKAGNCPPLEDNTVRVDIRIFNQNQGISVPREFQNRSSSPWDYNITRDPHRFPSEIAEAQCRHSGCINAQGQEDSTMNSVAIQQEILVLRREPQGCSNSFRLEKMLLKVGCTCVKPIVHQAA
modifications: biotinylated in Example 31
notes: also called murine IL-17F; MuIL-17F

What was measured:
[1] = biological target: T1, human IL-17RC (IL-17RCx1), full length …; experiment: FACS, biotinylated cytokine on transiently transfected 293T cells; (-) = no significant change in fluorescence
Text: (§1) Those chosen for this analysis also differed in their inclusion or exclusion of exon 7 and exon 12. These variants were designated human IL-17RCx1, IL-17RCx4, IL-17RCx2, and IL-17RCx7 and these are also illustrated in Table 6 below.

[2] = biological target: T2, human IL-17RCx4, on transfected 293T …; experiment: as above
Text: as §1

[3] = biological target: T3, mouse IL-17RCx1, on transfected cells; experiment: FACS, biotinylated cytokine on transfected cells; (-) = no significant change in fluorescence
[4] = biological target: T1, human IL-17RC (IL-17RCx1), full length …; experiment: cell-based or functional assay
[5] = biological target: T1, human IL-17RC (IL-17RCx1), full length …; experiment: saturation radioligand binding on BHK hIL-17RC cells, experiment 1; high affinity site of two-site fit
Description: (§2) Cold competitors were added in 100 fold molar excess. […] Wells were incubated on ice for 1-hour followed by two washes with PBS (Invitrogen 20012-027) and one wash with a high salt solution (1.5M NaCL, 50 mM HEPES pH 7.4). Wells were extracted with 500 ul of 0.8M NaOH for 30 min. at room temperature and counts per minute were measured in a gamma counter (Packard Cobra II A5005).
(§3) Transfected BHK cells were plated into 24-well dishes as in one. […] Separately, 100 fold molar excess of cold ligand was added at each dilution point. Cells were washed, extracted and counted as in one. Specific counts per minute were plotted against concentration of radiolabeled ligand added by subtracting the 100 fold excess counts from the uncompleted counts at each dilution point. These normalized data were plotted to generate saturation binding curves for each combination of radiolabeled ligand and transfected BHK cells.

[6] = biological target: T1, human IL-17RC (IL-17RCx1), full length …; experiment: saturation radioligand binding on BHK hIL-17RC cells, experiment 2; high affinity site of two-site fit
Description: as §2, §3

[7] = biological target: T1, human IL-17RC (IL-17RCx1), full length …; experiment: radioligand competition, 100x molar cold competitor, BHK hIL-17RC cells
Description: as §2

[8] = biological target: T4, human IL-17 receptor (IL-17R), on …; experiment: cell-based or functional assay
[9] = biological target: T3, mouse IL-17RCx1, on transfected cells; experiment: FACS, biotinylated cytokine on transfected cells; (+) = significant increase in fluorescence
[10] = biological target: T1, human IL-17RC (IL-17RCx1), full length …; experiment: saturation radioligand binding on BHK hIL-17RC cells, experiment 3; high affinity site of two-site fit
Description: as §2, §3

[11] = biological target: T2, human IL-17RCx4, on transfected 293T …; experiment: FACS, biotinylated cytokine on transiently transfected 293T cells; (+) = significant increase in fluorescence

Binder | binding result [1] | binding result [2] | binding result [3] | EC50, ap1/nfkb luciferase in nih3t3/kz142.8/hcytor14x1 pool [4] [ng/mL] | Kd [5] [nM] | Kd [6] [nM] | fold reduction of 125I IL-17A binding [7] [fold] | fold reduction of 125I IL-17F binding [7] [fold] | EC50, ap1/nfkb luciferase in hIL-17RCX1 recombinant line [4] [ng/mL] | fold more potent EC50 in the recombinant line vs the parental line [4] [fold] | EC50, ap1/nfkb luciferase in hIL-17RA recombinant line [8] [ng/mL] | binding result [9] | Kd [10] [nM] | binding result [11]
B1 | no binding | no binding | no binding | ~4 |  |  |  |  |  |  |  |  |  | 
B2 |  |  |  |  | 0.05 | 0.06 | ~7 | ~5 | 0.61 | 17 | 12.4 | binds | 0.08 | 
B3 | no binding |  | no binding |  |  |  |  |  |  |  |  |  |  | binds

From patent US20070196371A1 (ZymoGenetics, published 2007)
